In US20150025225A1 (SHIONOGI, published 2015):
Like-named read-outs stand apart in the source and are kept apart here.

T1: Baboon EL-C2 tag (baboon, UniProt Q9Y5X9 21-500 (human entry), limits assumed)
T1 construct: used as heparin extract of transfected HEK293F cells; also called baboon EL heparin extract
T1 chain: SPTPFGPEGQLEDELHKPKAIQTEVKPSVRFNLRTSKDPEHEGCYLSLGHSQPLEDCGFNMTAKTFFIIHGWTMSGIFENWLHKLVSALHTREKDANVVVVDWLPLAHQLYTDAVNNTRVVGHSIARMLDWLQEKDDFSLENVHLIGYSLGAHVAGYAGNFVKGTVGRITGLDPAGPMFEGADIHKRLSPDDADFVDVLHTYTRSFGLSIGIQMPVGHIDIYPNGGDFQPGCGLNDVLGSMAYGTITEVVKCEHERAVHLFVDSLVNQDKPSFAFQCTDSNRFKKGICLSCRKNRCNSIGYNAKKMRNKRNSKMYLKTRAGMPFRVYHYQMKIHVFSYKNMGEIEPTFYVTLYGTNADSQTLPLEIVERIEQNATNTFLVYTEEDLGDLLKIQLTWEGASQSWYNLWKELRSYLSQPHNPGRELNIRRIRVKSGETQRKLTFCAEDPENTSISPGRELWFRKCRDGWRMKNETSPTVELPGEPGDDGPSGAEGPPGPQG

T2: cynomolgus monkey EL-C2 tag (cynomolgus monkey, UniProt Q9Y5X9 21-500 (human entry), limits assumed)
T2 construct: used as heparin extract of transfected HEK293F cells; also called cynomolgus EL
T2 chain: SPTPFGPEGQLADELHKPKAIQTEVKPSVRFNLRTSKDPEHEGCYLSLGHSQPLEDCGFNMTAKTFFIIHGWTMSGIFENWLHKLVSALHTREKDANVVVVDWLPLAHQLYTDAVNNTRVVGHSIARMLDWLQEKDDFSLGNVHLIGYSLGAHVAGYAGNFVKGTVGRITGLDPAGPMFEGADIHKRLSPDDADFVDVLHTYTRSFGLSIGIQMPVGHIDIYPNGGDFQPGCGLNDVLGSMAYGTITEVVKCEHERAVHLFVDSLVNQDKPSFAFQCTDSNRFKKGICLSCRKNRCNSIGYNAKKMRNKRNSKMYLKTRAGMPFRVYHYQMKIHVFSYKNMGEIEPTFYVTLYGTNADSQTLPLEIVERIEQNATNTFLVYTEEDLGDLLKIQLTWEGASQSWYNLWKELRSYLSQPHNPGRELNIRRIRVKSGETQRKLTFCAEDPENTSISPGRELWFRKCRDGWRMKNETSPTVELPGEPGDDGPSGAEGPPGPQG

T3: mouse EL-C2 tag (mouse, UniProt Q9WVG5 21-500)
T3 construct: used as heparin extract of transfected HEK293F cells
T3 sequence: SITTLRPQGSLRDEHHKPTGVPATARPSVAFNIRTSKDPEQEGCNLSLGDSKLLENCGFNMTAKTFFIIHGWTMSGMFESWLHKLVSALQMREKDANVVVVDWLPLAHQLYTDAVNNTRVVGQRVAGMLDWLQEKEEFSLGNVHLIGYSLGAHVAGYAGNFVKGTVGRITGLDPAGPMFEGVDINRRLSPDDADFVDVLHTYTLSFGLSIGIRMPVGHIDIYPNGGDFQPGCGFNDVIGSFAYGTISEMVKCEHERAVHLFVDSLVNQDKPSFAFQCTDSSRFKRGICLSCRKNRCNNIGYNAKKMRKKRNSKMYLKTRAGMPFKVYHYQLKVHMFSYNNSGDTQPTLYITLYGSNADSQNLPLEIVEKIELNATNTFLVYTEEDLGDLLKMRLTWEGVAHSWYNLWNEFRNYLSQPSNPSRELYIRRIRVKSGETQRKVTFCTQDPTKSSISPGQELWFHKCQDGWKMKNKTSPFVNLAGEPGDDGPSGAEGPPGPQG

T4: human EL[331-459]-mouse EL-C2 tag (human/mouse chimera, UniProt Q9WVG5 21-500 (mouse entry))
T4 construct: used as heparin extract of transfected HEK293F cells; also called human-mouse chimera EL; Human-Mouse chimeric EL
T4 chain: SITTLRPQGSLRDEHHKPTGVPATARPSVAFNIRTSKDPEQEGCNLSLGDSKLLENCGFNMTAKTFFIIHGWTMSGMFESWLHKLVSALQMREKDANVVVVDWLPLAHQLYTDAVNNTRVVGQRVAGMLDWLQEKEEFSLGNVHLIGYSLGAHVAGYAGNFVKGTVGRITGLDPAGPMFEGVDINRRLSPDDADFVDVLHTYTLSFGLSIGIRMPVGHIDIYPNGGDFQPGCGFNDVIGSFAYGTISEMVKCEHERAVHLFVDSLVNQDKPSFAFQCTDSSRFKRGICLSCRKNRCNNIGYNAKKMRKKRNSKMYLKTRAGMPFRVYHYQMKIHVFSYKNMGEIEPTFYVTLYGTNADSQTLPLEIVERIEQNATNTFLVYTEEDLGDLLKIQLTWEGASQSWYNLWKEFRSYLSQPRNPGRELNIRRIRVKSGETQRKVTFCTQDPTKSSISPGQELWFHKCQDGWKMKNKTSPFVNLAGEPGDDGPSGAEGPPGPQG

T5: rabbit EL-C2 tag (rabbit)
T5 construct: used as cell lysate or heparin extract; also called rabbit EL lysate; rabbit EL enzyme solution
T5 chain: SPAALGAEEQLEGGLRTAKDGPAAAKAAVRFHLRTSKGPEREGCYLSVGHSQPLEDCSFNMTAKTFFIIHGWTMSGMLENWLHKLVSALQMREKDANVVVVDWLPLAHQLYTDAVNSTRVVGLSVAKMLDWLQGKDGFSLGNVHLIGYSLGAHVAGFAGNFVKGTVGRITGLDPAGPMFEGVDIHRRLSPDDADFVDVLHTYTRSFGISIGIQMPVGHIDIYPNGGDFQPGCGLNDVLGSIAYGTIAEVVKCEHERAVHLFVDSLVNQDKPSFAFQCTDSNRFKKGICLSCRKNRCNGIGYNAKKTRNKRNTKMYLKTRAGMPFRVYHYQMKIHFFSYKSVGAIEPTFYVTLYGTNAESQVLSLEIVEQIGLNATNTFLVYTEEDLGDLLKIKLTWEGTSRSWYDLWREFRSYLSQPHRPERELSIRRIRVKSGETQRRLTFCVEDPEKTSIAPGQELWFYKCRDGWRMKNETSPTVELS

B1: 47B2 antibody (antibody, IgG2a, V domains shown)
VH: QVALKESGPGILQPSQTLSLTCSFSGFSLSTSGMGVGWIRQPSGKGLEWLAHIWWHGNKYYSTGLKSRLTISKDTSNNQVFLKIASVDTADTATYYCARISAGYPLDYWGQGTSVTVSS
VL: DIQMTQSPSSLSASLGGKVTITCKASQDINKYIVWYQHKPGKGPRLLIHYTSTLQPGFPSRFSGSGSGRDYSLSITNLEPEDIATYYCLQYDNLLWTFGGGTKLEIK
B2: 12B10 antibody (antibody, IgG2a, V domains shown)
VH: QVTLKESGPGILKPSQTLSLTCSFSGFSLSTSGMGVGWIRQPSGKGLEWLAHIWWNDEKYYNPSLKSQLTISKDTSRNQVFLKITSVDTADTATYYCARSYDGSPFPSWGQGTLVTVSA
VL: DIQMTQSPSSLSASLGGKVTITCKASQDINKYIAWFQHKPGKGPRLLMAYPFTLQPGIPSRFSGNGSGRDYSFSISNLEPEDIATYYCLQYDNLLWTFGGGTRLEIK

What was measured:
Test in all cases: ELISA-type titration, A450 against antibody concentration; protocol not described in the text
Baboon EL-C2 tag = biological target: T1, Baboon EL-C2 tag
[1] = biological target: T2, cynomolgus monkey EL-C2 tag
mouse EL-C2 tag = biological target: T3, mouse EL-C2 tag
[2] = biological target: T4, human EL[331-459]-mouse EL-C2 tag
rabbit EL-C2 tag = biological target: T5, rabbit EL-C2 tag
[3] = biological target: T4, human EL[331-459]-mouse EL-C2 tag

Binder | EC50 (read off the curve) (Baboon EL-C2 tag) | EC50 (read off the curve) [1] | binding result (mouse EL-C2 tag) | EC50 (read off the curve) [2] | EC50 (read off the curve) (rabbit EL-C2 tag) | EC50 (read off the curve) [3]
B1 | ~10 ng/mL | ~6 ng/mL | binds | ~10 ng/mL | ~7 ng/mL | 
B2 |  |  |  |  |  | ~40 ng/mL
